Each structure is given as a SMILES string. In brackets after ≈: the same amount, converted by molar mass. Where two headings read alike, the source gives them in different places. Starred links: 1 amine or outer side, 2 acyl side, 3 side chain; linkers in the order of their positions; H or OH if unused. Non-standard residues stand in square brackets, D forms with d. Residues, ends and D or L forms follow the SMILES beside them. ξ: configuration not given here. *: point of attachment. X1 = COc1cccc2c1C(=O)c1c(O)c3c(c(O)c1C2=O)C[C@@](O)(C(=O)CO)C[C@@H]3OC1CC(N*)C(O)C(C)O1; X2 = COc1cccc2c1C(=O)c1c(O)c3c(c(O)c1C2=O)CC(O)(C(=O)CO)CC3OC1CC(N*)C(O)C(C)O1; Glutaryl = O=C(CCCC(=O)[*:2])[*:1]; Hyp = O=C(O)[C@@H]1C[C@@H](O)CN1; Chg = N[C@H](C(=O)O)C1CCCCC1; ξChg = NC(C(=O)O)C1CCCCC1; ξHyp = O=C(O)C1CC(O)CN1; ξS = NC(CO)C(=O)O; ξA = CC(N)C(=O)O

Type in all cases: physicochemical
Data set [1] can be described thus: Aggregate formation on dissolution in water (filtration through 0.22μ filter). The text has this: (§1) It has further been discovered that the sodium salt of the Formula 5 offers advantages with respect to dissolution in water.
Data set [2] in a line: Thermal / storage stability. To be noted: sodium salt compared with free acid. The protocol:
(§2) An aqueous solution of the sodium salt of the instant invention has a pH of greater than 5.0. It has been discovered that the bond between the sugar moiety of doxorubicin and the tetracyclic doxorubicinone moiety is more readily cleaved at aqueous pH of less than 4.0. Therefore the sodium salt offers clear formulation advantages over the free acid, which has an unbuffered aqueous pH of less than 4.0.
In particular, the lyophilized formulation is prepared by the addition of a salt of a carboxylic acid to an aqueous solution of the previously described free acid compound 4. The amount of carboxylate salt that is added to the prelyophilization solution of the compound of formula 4 is from about 3 molar equivalents of base of trisodium citrate per mole of compound 4 to about 9 molar equivalents of base per mole of compound 4. Preferably, the amount of salt that is added is about 5 molar equivalents of base per mole of compound 4.

Data set [3] is described as follows: Solubility in water at room temperature.
Text: as §1
It has further been discovered that the lyophilized formulation offers advantages with respect to dissolution in water.

The nature of another data set: pH of aqueous solution. The note with it: unbuffered aqueous solution.
Text: as §2

As a reminder, the solubility is the dissolved amount per volume that the medium holds. Consider `COc1cccc2c1C(=O)c1c(O)c3c(c(O)c1C2=O)CC(O)(C(=O)CO)CC3OC1CC(NC(=O)[C@H](CC(C)C)NC(=O)C(CO)NC(=O)[C@H](CCC(N)=O)NC(=O)C(NC(=O)C(CO)NC(=O)C(C)NC(=O)C2CC(O)CN2C(=O)CCCC(=O)[O-])C2CCCCC2)C(O)C(C)O1.[Na+]` (stereo partly drawn) [Compound 5, [N-Glutaryl-(4-trans-L-Hyp)]-Ala-Ser-Chg-Gln-Ser-Leu-Dox Sodium salt] (Glutaryl-[ξHyp][ξA][ξS][ξChg]Q[ξS]L-X2), for which the “formation of aggregates on dissolution in water” value in data set [1] is reported as “dissolves in water without forming aggregates”. For the same molecule, the thermal stability result in data set [2] is “more thermally stable than the corresponding free acid compound”. For the same molecule, the solubility in data set [3] (room temperature, water, read-out: solubility) is greater than 277 mg/mL. The “pH of aqueous solution” value in “pH of aqueous solution” is “greater than 5.0”.
For the molecule `COc1cccc2c1C(=O)c1c(O)c3c(c(O)c1C2=O)C[C@@](O)(C(=O)CO)C[C@@H]3OC1CC(NC(=O)[C@H](CC(C)C)NC(=O)[C@H](CO)NC(=O)[C@H](CCC(N)=O)NC(=O)[C@@H](NC(=O)[C@H](CO)NC(=O)[C@H](C)NC(=O)[C@@H]2C[C@@H](O)CN2C(=O)CCCC(=O)O)C2CCCCC2)C(O)C(C)O1` (stereo partly drawn) [Compound 4, [N-Glutaryl-(4-trans-L-Hyp)]-Ala-Ser-Chg-Gln-Ser-Leu-Dox] (Glutaryl-[Hyp]AS[Chg]QSL-X1), the solubility in data set [3] was 13.8 mg/mL of water; in data set [3] (pH 2.35), 3.98 mg/mL (≈ 2850 µM); in data set [3] (pH 5.72, water), greater than 156 mg/mL.

The values above are taken from patent publication US6355611B1, “Salt form of a conjugate useful in the treatment of prostate cancer” (Merck & Co., Inc., priority 1999, dated 2002).
